Reference: patent US20220251219A1 (published 2022)

Assays:
mouse Sortilin = mouse Sortilin (mouse, UniProt Q6PHU5 74-825); test: cell-based or functional assay
human Sortilin = human Sortilin (human, UniProt Q99523 78-830); test: cell-based or functional assay
[1] = target: T1, recombinant mouse Sortilin (mouse, UniProt Q6PHU5 74-825); test: flow cytometry, 10 ug/ml antibody on 293 cells expressing recombinant mouse Sortilin, PE anti-human secondary
T1 construct: also called mSort
Protocol: (§1) Cells were harvested, plated at 10⁵/ml in a 96 well plate, washed, and incubated in 100 μl PBS containing 10 μg/ml Mab and 2% FBS for 1 hour in ice. Cells were then washed twice and incubated in 100 μl PBS+2% FBS containing 5 μg/ml PE-conjugated anti-human secondary antibody for 30 minutes in ice. Cells were washed twice in cold PBS and data was acquired on a BD FACS Canto. Data analysis and calculation of MFI values was performed with FlowJo (TreeStar) software version 10.0.7.

[2] = target: T2, recombinant human Sortilin (human, UniProt Q99523 78-830); test: flow cytometry, 10 ug/ml antibody on 293 cells expressing recombinant human Sortilin, PE anti-human secondary
T2 construct: also called hSort; SORT1
Protocol: as §1

Binder	Percent reduction of Sortilin levels in N2A cells (mouse Sortilin)	Percent reduction of Sortilin levels in U251 cells (human Sortilin)	MFI binding [1]	MFI binding [2]
anti-Sortilin antibody S-55 (antibody, V domains shown) VH: QVQLQESGPGLVKPSETLSLTCAVSGYSISSGYYWGWIRQPPGKGLEWIGSIYHSGSTYYNPSLKSRVTISVDTSKNQFSLKLSSVTAADTAVYYCARGRPELGWDKYFQHWGQGTLVTVSS VL: DIQMTQSPSSVSASVGDRVTITCRASQGISRWLAWYQQKPGKAPKLLIYAASSLQSGVPSRFSGSGSGTDFTLTISSLQPEDFATYYCQQANALPTFGGGTKVEIK	67.7%	73%		
anti-Sortilin antibody S-73 (antibody, V domains shown, Tested as full IgG made in yeast) VH: QVQLQESGPGLVKPSQTLSLTCTVSGGSISSGTYYWSWIRQHPGKGLEWIGYIYYSGSTYYNPSLKSRVTISVDTSKNQFSLKLSSVTAADTAVYYCARGVGRYRVADYWGQGTLVTVSS VL: EIVLTQSPATLSLSPGERATLSCRASQSVSSYLAWYQQKPGQAPRLLIYDASNRATGIPARFSGSGSGTDFTLTISSLEPEDFAVYYCQQASVYPPITFGGGTKVEIK			7670 MFI	8070 MFI
anti-Sortilin antibody S-74 (antibody, V domains shown, Tested as full IgG made in yeast) VH: QVQLQESGPGLVKPSQTLSLTCTVSGGSISSGTYYWSWIRQHPGKGLEWIGYIYYSGSTYYNPSLKSRVTISVDTSKNQFSLKLSSVTAADTAVYYCARGVGRYRVADYWGQGTLVTVSS VL: EIVMTQSPATLSLSPGERATLSCRASQSVSSYLAWYQQKPGQAPRLLIYDSSNRATGIPARFSGSGSGTDFTLTISSLEPEDFAVYYCQQETNMPPITFGGGTKVEIK			7300 MFI	9210 MFI
anti-Sortilin antibody S-14 (antibody, V domains shown) VH: QVQLVQSGAEVKKPGASVKVSCKASGYTFTSYYMSWVRQAPGQGLEWMGIINPSGGSTSYAQKFQGRVTMTRDTSTSTVYMELSSLRSEDTAVYYCARDPSGIAAAGPASRYYYGMDVWGQGTTVTVSS VL: DIQMTQSPSSLSASVGDRVTITCRASQSISSYLNWYQQKPGKAPKLLIYGASSLQSGVPSRFSGSGSGTDFTLTISSLQPEDFATYYCQQHYVGPFTFGGGTKVEIK	58.5%	75.4%		
anti-Sortilin antibody S-76 (antibody, V domains shown, Tested as full IgG made in yeast) VH: QVQLQESGPGLVKPSQTLSLTCTVSGGSISSGGYYWSWIRQHPGKGLEWIGSIYYSGSTYYNPSLKSRVTISVDTSKNQFSLKLSSVTAADTAVYYCARGVGIQQQLVLGFDPWGQGTLVTVSS VL: DIQMTQSPSSLSASVGDRVTITCRASQSISSFLNWYQQKPGKAPKLLISAASSLQSGVPSRFSGSGSGTDFTLTISSLQPEDFATYYCQQSYREPITFGGGTKVEIK			4180 MFI	9680 MFI
anti-Sortilin antibody S-19 (antibody, V domains shown) VH: QVQLVQSGAEVKKPGSSVKVSCKASGGTFSSYAISWVRQAPGQGLEWMGGIIPIFGTASYAQKFQGRVTITADESTSTAYMELSSLRSEDTAVYYCARESRIPGSGYYYYYGMDVWGQGTTVTVSS VL: DIQMTQSPSSLSASVGDRVTITCRASQSISSYLNWYQQKPGKAPKLLIYSASSLQSGVPSRFSGSGSGTDFTLTISSLQPEDFATYYCQQTDGKPPTFGGGTKVEIK	86.5%	93.4%		
anti-Sortilin antibody S-61 (antibody, V domains shown) VH: QVQLQESGPGLVKPSETLSLTCAVSGYSISSGYYWGWIRQPPGKGLEWIGSIYHSGSTYYNPSLKSRVTISVDTSKNQFSLKLSSVTAADTAVYYCARGSPRFYYGSGSYLDLFDIWGQGTMVTVSS VL: EIVMTQSPATLSVSPGERATLSCRASQSVSSNLAWYQQKPGQAPRLLIYGASTRATGIPARFSGSGSGTEFTLTISSLQSEDFAVYYCQEYLNYPITFGGGTKVEIK	62.7%	70.3%		
anti-Sortilin antibody S-83 (antibody, V domains shown, Tested as full IgG made in yeast) VH: QLQLQESGPGLVKPSETLSLTCTVSGGSISSSSYYWGWIRQPPGKGLEWIGSIYYSGSTYYNPSLKSRVTISVDTSKNQFSLKLSSVTAADTAVYYCARGSPTWLRDYYMDVWGKGTTVTVSS VL: EIVLTQSPATLSVSPGERATLSCRASQSVSSNLAWYQQKPGQAPRLLIYGASTRATGIPARFSGSGSGTEFTLTISSLQSEDFAVYYCQQYNAFPPTFGGGTKVEIK				9300 MFI
anti-Sortilin antibody S-6 (antibody, V domains shown) VH: not shown VL: EIVMTQSPATLSVSPGERATLSCRASQSVSSNLAWYQQKPGQAPRLLIYGASTRATGIPARFSGSGSGTEFTLTISSLQSEDFAVYYCQQVANYPRTFGGGTKVEIK	45.1%	42.5%		
anti-Sortilin antibody S-69 (antibody, V domains shown, Tested as full IgG made in yeast) VH: QVQLQESGPGLVKPSQTLSLTCTVSGGSISSGGYYWSWIRQHPGKGLEWIGYIYYSGSTYYNPSLKSRVTISVDTSKNQFSLKLSSVTAADTAVYYCARDRGGTHFGADHYYYGMDVWGQGTMVTVSS VL: EIVMTQSPATLSVSPGERATLSCRASQSVSSSLAWYQQKPGQAPRLLIYGASTRATGIPARFSGSGSGTEFTLTISSLQSEDFAVYYCQQAADWPITFGGGTKVEIK			1890 MFI	8580 MFI
anti-Sortilin antibody S-78 (antibody, V domains shown, Tested as full IgG made in yeast) VH: QLQLQESGPGLVKPSETLSLTCTVSGGSISSSDYYWGWIRQPPGKGLEWIGSIYYSGSTYYNPSLKSRVTISVDTSKNQFSLKLSSVTAADTAVYYCARSLAMSGAYFDLWGRGTLVTVSS VL: not shown			7930 MFI	7120 MFI
anti-Sortilin antibody S-81 (antibody, V domains shown) VH: QLQLQESGPGLVKPSETLSLTCTVSGGSISSSSYYWGWIRQPPGKGLEWIGSIYYSGSTYYNPSLKSRVTISVDTSKNQFSLKLSSVTAADTAVYYCARERWDLGHGMDVWGQGTTVTVSS VL: not shown	51.3%	18.2%		
anti-Sortilin antibody S-81 (antibody, V domains shown, Tested as full IgG made in yeast) VH: QLQLQESGPGLVKPSETLSLTCTVSGGSISSSSYYWGWIRQPPGKGLEWIGSIYYSGSTYYNPSLKSRVTISVDTSKNQFSLKLSSVTAADTAVYYCARERWDLGHGMDVWGQGTTVTVSS VL: not shown			16600 MFI	8940 MFI
anti-Sortilin antibody S-26 (antibody, V domains shown) VH: EVQLVESGGGLVKPGGSLRLSCAASGFTFSSYSMNWVRQAPGKGLEWVSSISSSSSYIYYADSVKGRFTISRDNAKNSLYLQMNSLRAEDTAVYYCARDRLGRGYKWNWFDPWGQGTLVTVSS VL: DIQMTQSPSSVSASVGDRVTITCRASQGIDSWLAWYQQKPGKAPKLLIYAASSLQSGVPSRFSGSGSGTDFTLTISSLQPEDFATYYCQQGNSLPPITFGGGTKVEIK	47.3%	17.1%		
anti-Sortilin antibody S-84 (antibody, V domains shown, Tested as full IgG made in yeast) VH: QLQLQESGPGLVKPSETLSLTCTVSGGSISSSSYYWGWIRQPPGKGLEWIGSISYSGSTYYNPSLKSRVTISVDTSKNQFSLKLSSVTAADTAVYYCARGGTTWLVADVWGQGTMVTVSS VL: not shown			15400 MFI	9240 MFI
